In patent US5670637, “Nucleic acid ligands” (NeXstar Pharmaceuticals, Inc.):

Molecular target: nerve growth factor (NGF) (UniProt P01139 P01139:122-241)
Test: filter
Settings: chain copies: 2

Chain of nerve growth factor (NGF) (P01139 122-241, one chain of several): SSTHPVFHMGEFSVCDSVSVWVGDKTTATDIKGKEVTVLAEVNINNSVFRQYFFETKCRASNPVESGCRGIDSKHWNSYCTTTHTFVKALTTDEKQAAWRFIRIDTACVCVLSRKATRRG

B1: hsngf.a (ssRNA)
RNA: GGGAGCUCAGAAUAAACGCUCAACUCAUGGAGCGCAAGACGAAUAGCUACAUAUUCGACAUGAGGCCCGGAUCCGGC
Does B1 bind?
Result: binds
